In patent US12723255B2, “Herbicide tolerance genes and methods of use thereof” (priority 2014, dated 2026):
Values joined by “and” are separate entries in the source; they are usually repeats but may differ in a detail not shown here. Identical values can stand only once. Like-named read-outs stand apart in the source and are kept apart here.

Columns and labels:
[1] = enzyme activity assay at 23° C. with purified enzyme; assay type: biochemical
Method: The enzyme activity of MON-HT protein variants with haloxyfop, fenoxaprop, fluazifop, and dichlorprop as substrates was determined using the enzyme activity assay conducted at 23° C. with purified enzyme. The activity was recorded as the maximum activity as a percentage of the wild-type enzyme's activity, which was set at 100%.

[2] = kinetic analysis, non-endpoint assay at 23° C.; assay type: biochemical
In short: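 Purified C-terminal 6-His-tagged recombinant enzymes expressed in bacteria; quizalofop-P or 2,4-D as substrate. Vmax reported as specific activity (umol herbicide product mg enzyme-1 min-1) and Km as mM herbicide substrate, with standard error.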

F1 hybrid maize plants = assay: efficacy field trial for 2,4-D tolerance; assay type: in vivo; conditions: for average injury rating, V4 Growth Stage, 2x 2,4-D / average injury rating, V8 Growth Stage, 2x 2,4-D / average injury rating, V4 Growth Stage, 4x 2,4-D / average injury rating, V8 Growth Stage, 4x 2,4-D / average injury rating, V4 Growth Stage, 8x 2,4-D / average injury rating, V8 Growth Stage, 8x 2,4-D / average injury rating, V4 Growth Stage, 16x 2,4-D / average injury rating, V8 Growth Stage, 16x 2,4-D: scale 0 to 100, with CTP unless label says no CTP; for average injury rating, V4 Growth Stage, 2x 2,4-D / average injury rating, V8 Growth Stage, 2x 2,4-D: 2 lb ae/acre at VE-V2, V4, V8; for average injury rating, V4 Growth Stage, 4x 2,4-D / average injury rating, V8 Growth Stage, 4x 2,4-D: 4 lb ae/acre at VE-V2, V4, V8; for average injury rating, V4 Growth Stage, 8x 2,4-D / average injury rating, V8 Growth Stage, 8x 2,4-D: 8 lb ae/acre at VE-V2, V4, V8; for average injury rating, V4 Growth Stage, 16x 2,4-D / average injury rating, V8 Growth Stage, 16x 2,4-D: 16 lb ae/acre at VE-V2, V4, V8
Method: Separate trait efficacy field trials for quizalofop-P and 2,4-D were conducted at two locations cach with F1 hybrid transgenic plants produced by crossing an inbred plant containing maize event MON89034 with an R1 plant containing MON-HT55 (with a CTP), MON-HTI (with or without a CTP), MON-HT2 (with or without a CTP), MON-HT3 (with a CTP), MON-HT4 (with a CTP), MON-HT5 (with a CTP), MON-HT6 (with a CTP), or MON-HT7 (with a CTP). Transgenic F1 hybrid plants containing maize events NK603×MON89034 were used for comparison as a control.
In the efficacy field trial for 2,4-D tolerance, one of four herbicide treatments was used: (1) 2,4-D amine at 2 lb ac/acre (2×) plus 0.25% v/v non-ionic surfactant (NIS) applied to VE to V2 followed by V4 followed by V8; (2) 2,4-D amine at 4 lb ac/acre (4×) plus 0.25% v/v NIS applied to VE to V2 followed by V4 followed by V8; (3) 2,4-D amine at 8 lb ac/acre (8×) plus 0.25% v/v NIS applied to VE to V2 followed by V4 followed by V8 maize; or (4) 2,4-D amine at 16 lb ac/acre (16×) plus 0.25% v/v NIS applied to VE to V2 followed by V4 followed by V8. Plots were visually rated as above. Tables 14 and 15 show the average injury ratings after herbicide application at V4 or V8 growth stage, respectively.

[3] = assay type: physicochemical; conditions: for T1/2, temperature where 50% of the protein was unfolded, Buffer: pH 7.5
In short: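 Thermal shift assay: purified enzyme in 30 mM Tris pH7.5, 150 mM NaCl, with or without 50 uM Fe2+ and 1.0 mM aKG. Unfolding followed by SYPRO orange fluorescence from 10° C. to 95° C. in 0.5° C. steps; melting temperature (T1/2) taken from the curve.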

[4] = 23° C., purified His-tagged protein, standard error in parenthetical
[5] = 23° C., purified His-tagged protein, standard error in parenthetical, read-out: Km Quizalofop
[6] = standard error in parenthetical, NDB = activity not robust enough for kinetic characterization
[7] = standard error in parenthetical, NDB = activity not robust enough for kinetic characterization, read-out: Km 2,4-D

Row | Molecule | maximum activity as a percentage of the wild-type enzyme's activity, Fluazifop ([1]; wild-type set at 100%) | Vmax Quizalofop [2, 4] | Km [2, 5] | Vmax 2,4-D [2, 6] | Km [2, 7] | average injury rating, V4 Growth Stage, 2x 2,4-D (F1 hybrid maize plants) | average injury rating, V8 Growth Stage, 2x 2,4-D (F1 hybrid maize plants) | average injury rating, V4 Growth Stage, 4x 2,4-D (F1 hybrid maize plants) | average injury rating, V8 Growth Stage, 4x 2,4-D (F1 hybrid maize plants) | average injury rating, V4 Growth Stage, 8x 2,4-D (F1 hybrid maize plants) | average injury rating, V8 Growth Stage, 8x 2,4-D (F1 hybrid maize plants) | average injury rating, V4 Growth Stage, 16x 2,4-D (F1 hybrid maize plants) | average injury rating, V8 Growth Stage, 16x 2,4-D (F1 hybrid maize plants) | T1/2, temperature where 50% of the protein was unfolded, Buffer plus Fe2+ and aKG [3] | T1/2, temperature where 50% of the protein was unfolded, Buffer [3] | maximum activity as a percentage of the wild-type enzyme's activity, Dichlorprop ([1]; wild-type set at 100%) | further results
1 | MON-HT1: engineered oxygenase protein, amino acid sequence SEQ ID NO:14 (protein) MHAALTPLTNKYRFIDVQPLTGVLGAEITGVDLREPLDDSTWNEILDAFHTYQVIYFPGQAITNEQHIAFSRRFGPVDPVPILKSIEGYPEVQMIRREANESSRFIGDDWHTDSTFLDAPPAAVVMRAIEVPEYGGDTGFLSMYSAWETLSPTMQATIEGLNVVHSATKVFGSLYQATNWRFSNTSVKVMDVDAGDRETVHPLVVTHPVTGRRALYCNQVYCQKIQGMTDAESKSLLQFLYEHATKFDFTCRVRWKKDQVLVWDNLCTMHRAVPDYAGKFRYLTRTTVAGDKPSR | 67% | 0.76 (−0.04) umol herbicide product mg enzyme-1 min-1 | 170 µM | 0.95 (−0.03) umol herbicide product mg enzyme-1 min-1 | 30 µM | 0.0 | 1.3 | 0.0 | 1.5 | 5.0 | 8.3 | 6.3 | 16.3 | 59 °C | 56 °C |  | Vmax for 2,4-D higher than that of the wild-type enzyme [2]: 9.5 fold; Vmax for quizalofop-P relative to the wild-type enzyme ([2]; 23° C.): about half; Vmax 2,4-D ([2]; Table 10 series, unit as defined): 1.17 (0.01) umol herbicide product mg enzyme-1 min-1; Km ([2]; Table 10 series, unit as defined, read-out: Km 2,4-D): 30 µM; Vmax Quizalofop ([2]; Table 10 series, 23° C., unit as defined): 1.62 (0.05) umol herbicide product mg enzyme-1 min-1; Km ([2]; Table 10 series, 23° C., unit as defined, read-out: Km Quizalofop): 120 µM; average injury rating, V8 Growth Stage, 2x 2,4-D (F1 hybrid maize plants; listed as MON-HT1 (no CTP)): 2.5; average injury rating, V8 Growth Stage, 4x 2,4-D (F1 hybrid maize plants; listed as MON-HT1 (no CTP)): 4.0; average injury rating, V4 Growth Stage, 8x 2,4-D (F1 hybrid maize plants; listed as MON-HT1 (no CTP)): 5.8; average injury rating, V8 Growth Stage, 8x 2,4-D (F1 hybrid maize plants; listed as MON-HT1 (no CTP)): 8.8; average injury rating, V4 Growth Stage, 16x 2,4-D (F1 hybrid maize plants; listed as MON-HT1 (no CTP)): 12.5; average injury rating, V8 Growth Stage, 16x 2,4-D (F1 hybrid maize plants; listed as MON-HT1 (no CTP)): 13.8; Melting temp, Buffer ([3]; Table 11 series): 58 °C; Melting temp, Buffer plus Fe2+ and aKG ([3]; Table 11 series): 62 °C
2 | MON-HT2: engineered oxygenase protein, amino acid sequence SEQ ID NO:18 (protein) MHAALTPLTNKYRFIDVQPLTGVLGAEITGVDLREPLDDSTWNEILDAFHTYQVIYFPGQAITNEQHIAFSRRFGPVDPVPLLKSIEGYPEVQMIRREANESSRVIGDDWHSDSTFLDAPPAAVVMRAIEVPEYGGDTGFLSMYSAWETLSPTMQATIEGLNVVHSATKVFGSLYQATNWRFSNTSVKVMDVDAGDRETVHPLVVTHPVTGRRALYCNQVYCQKIQGMTDAESKSLLQFLYEHATKFDFTCRVRWKKDQVLVWDNLCTMHRAAPDYAGKFRYLTRTTVAGDKPSR |  | 1.41 (−0.11) umol herbicide product mg enzyme-1 min-1 | 410 µM | 0.23 (−0.01) umol herbicide product mg enzyme-1 min-1 | 40 µM | 1.3 | 2.5 | 0.0 | 3.3 | 4.5 | 10.0 | 7.5 | 15.0 | 58 °C | 55 °C | 92% | average injury rating, V8 Growth Stage, 2x 2,4-D (F1 hybrid maize plants; listed as MON-HT2 (no CTP)): 5.0; average injury rating, V4 Growth Stage, 4x 2,4-D (F1 hybrid maize plants; listed as MON-HT2 (no CTP)): 2.5; average injury rating, V8 Growth Stage, 4x 2,4-D (F1 hybrid maize plants; listed as MON-HT2 (no CTP)): 8.8; average injury rating, V4 Growth Stage, 8x 2,4-D (F1 hybrid maize plants; listed as MON-HT2 (no CTP)): 13.8; average injury rating, V8 Growth Stage, 8x 2,4-D (F1 hybrid maize plants; listed as MON-HT2 (no CTP)): 13.8; average injury rating, V4 Growth Stage, 16x 2,4-D (F1 hybrid maize plants; listed as MON-HT2 (no CTP)): 21.3; average injury rating, V8 Growth Stage, 16x 2,4-D (F1 hybrid maize plants; listed as MON-HT2 (no CTP)): 25.0; injury rating after 2,4-D application at V4 growth stage at 8× (F1 hybrid maize plants; without the CTP): 13.75%; injury rating after 2,4-D application at V4 growth stage at 16× (F1 hybrid maize plants; without the CTP): 21.25%
3 | MON-HT55: engineered oxygenase protein, amino acid sequence SEQ ID NO:11 (protein) MHAALSPLSQRFERIAVQPLTGVLGAEITGVDLREPLDDSTWNEILDAFHTYQVIYFPGQAITNEQHIAFSRRFGPVDPVPLLKSIEGYPEVQMIRREANESGRVIGENWHTDSTFLDAPPAAVVMYAKEIPPYGGDTLFTSMYTAWETLSPTMQATIEGLNVVHSATRVFGSLYQAQNRRFSNTSVKVMDVDAGDRETVHPLVVTHPETGRKGLYVNQVYCQRIEGMSEKESEPLLSFLFAHATKPEFTCRVRWQEGDVLVWDNLCTQHYAVPDYAGKFRYLTRTTVGGVRPAR | 38% | 0.44 (−0.04) umol herbicide product mg enzyme-1 min-1 | 320 µM | 0.03 (−0.02) umol herbicide product mg enzyme-1 min-1 | 690 µM |  | 15.0 and 12.5 and 16.3 and 14.4 and 11.3 | 31.3 and 22.5 and 41.3 and 23.1 and 30.0 |  | 45.0 and 53.8 and 43.8 and 50.0 and 58.8 and 48.8 | 33.8 and 36.3 and 39.4 and 30.0 and 35.0 | 61.3 and 63.8 and 66.3 and 55.0 and 53.8 and 52.5 | 57.5 and 52.5 and 55.0 and 56.9 and 47.5 | 41 °C | 41 °C | 31% | maximum activities for all four substrates compared with the wild-type enzyme ([1]; haloxyfop, fenoxaprop, fluazifop and dichlorprop): lower than, or equal to; maximum activity as a percentage of the wild-type enzyme's activity, Haloxyfop ([1]; purified enzyme, wild-type set at 100%): 58%; maximum activity as a percentage of the wild-type enzyme's activity, Fenoxaprop ([1]; wild-type set at 100%): 34%
